Assay [1] addresses mouse IgG1 kappa anti-CD3 antibody (clone UTH1, BD bioscience 555329) (mouse). Description: cross-linking; photo-crosslinking through BpA in PpL: 50-100 uM PpL construct with 1-4 uM antibody in PBS pH7.6, 365 nm light (6.4 mW/cm^2) up to 1 h; products reduced with DTT and read on SDS-PAGE.
For assay [2], the target named is Cetuximab (Selleck Chemicals A2000). The description is as above.

In assay [1], “PpL-R33BpA (PpL-linker-FLAG construct with BpA at R33) (designed binder)” had a yield of conjugated to un-conjugated light chain (by gel intensity) of 30%.
In assay [2], “PpL-R33BpA with linker arm and Sortase A recognition site (PpL with the sortase site only) (designed binder)” gave a photoconjugation yield (by gel) of 75%.

Source of the values: PMC9741643.
